Here are results for one protein from patent US20100043097.

Series [1] has as its target GST tagged BRK1-S230A.
Series [2] concerns the target GST-BRK1.

GST-BRK1, sequence (chain, as listed by the source): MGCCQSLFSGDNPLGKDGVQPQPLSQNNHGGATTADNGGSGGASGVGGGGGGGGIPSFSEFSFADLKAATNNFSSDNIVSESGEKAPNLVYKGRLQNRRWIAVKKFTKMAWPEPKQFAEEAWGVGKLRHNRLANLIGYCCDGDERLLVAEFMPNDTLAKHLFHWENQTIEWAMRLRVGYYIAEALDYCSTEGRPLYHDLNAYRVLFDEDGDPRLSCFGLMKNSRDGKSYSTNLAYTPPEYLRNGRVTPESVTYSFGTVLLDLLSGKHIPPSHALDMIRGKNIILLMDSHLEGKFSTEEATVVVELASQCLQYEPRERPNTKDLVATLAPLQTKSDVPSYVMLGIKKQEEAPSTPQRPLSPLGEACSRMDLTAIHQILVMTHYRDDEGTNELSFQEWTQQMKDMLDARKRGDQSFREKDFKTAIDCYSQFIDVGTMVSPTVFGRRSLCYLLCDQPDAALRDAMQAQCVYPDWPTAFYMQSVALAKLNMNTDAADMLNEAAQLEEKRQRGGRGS

B1: GST-BRI1-KD (protein)
chain: REMRKRRRKKEAELEMYAEGHGNSGDRTANNTNWKLTGVKEALSINLAAFEKPLRKLTFADLLQATNGFHNDSLIGSGGFGDVYKAILKDGSAVAIKKLIHVSGQGDREFMAEMETIGKIKHRNLVPLLGYCKVGDERLLVYEFMKYGSLEDVLHDPKKAGVKLNWSTRRKIAIGSARGLAFLHHNCSPHIIHRDMKSSNVLLDENLEARVSDFGMARLMSAMDTHLSVSTLAGTPGYVPPEYYQSFRCSTKGDVYSYGVVLLELLTGKRPTDSPDFGDNNLVGWVKQHAKLRISDVFDPELMKEDPALEIELLQHLKVAVACLDDRAWRRPTMVQVMAMFKEIQAGSGIDSQSTIRSIEDGGFSTIEMVDMSIKEVPEGKL
In the case of B1, the “in vitro kinase assay (32P autoradiography), reduction of phosphorylation” value in series [1] is recorded as “a S230A mutation reduced the phosphorylation by 82%”. Besides, in series [2], the “mass spectrometry of BRI1-phosphorylated BRK1” value was “identified serine 230 of BRK1 as a BRI1 phosphorylation site”.
